Patent US20130203609A1 (BOARD OF TRUSTEES OF NORTHERN ILLINOIS UNIVERSITY, published 2013)
Where a chain is given by its changes, count along the chain named.

Experiments:
[1] = target: T1, bovine pancreatic RNase A (bovine, UniProt P61823 27-150); test: competitive phage ELISA with 1 mM metals: VHH phage, serially diluted soluble RNase A (the varied competitor), RNase A-coated wells [panel A]
T1 construct: mature; Bought purified protein; The residue numbers K61 and T70, and the missing residues 16-22, fit the mature numbering; It was coated on plates in the ELISAs and biotinylated for the phage selections
T1 sequence (looked up): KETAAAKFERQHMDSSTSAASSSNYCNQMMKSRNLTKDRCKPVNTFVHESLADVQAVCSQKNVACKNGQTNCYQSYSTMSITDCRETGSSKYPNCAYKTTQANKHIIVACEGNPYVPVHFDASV
Experimental: (§1) Competitive Phage ELISA: Competitive phage ELISA's were performed as described by DeLano and Cunningham (DeLano and Cunningham 2004). Briefly, the concentration of phage needed to produce a 60% saturation signal was determined by running a phage ELISA of serially diluted phage stocks. This fixed amount of phage was then added to serially diluted RNase A and incubated for one hour at room temperature. The well contents of that plate were then transferred to a washed and blocked RNase A coated Maxisorp microtiter plate and incubated 15 minutes at room temperature. The plates were then treated as described above to determine the […] absorbance. The IC50 values were then determined using Origin Labs using the following relationship: […]

[2] = target: T1, bovine pancreatic RNase A; test: competitive phage ELISA without metals: VHH phage, serially diluted soluble RNase A (the varied competitor), RNase A-coated wells [panel A]
Experimental: as §1

[3] = target: T1, bovine pancreatic RNase A; test: ITC, 25 C; RNase A binding with 1 mM nickel (competitive)
Experimental: (§2) The binding parameters (K, ΔH°, ΔS°, and n) were determined using the single site binding model using the ITC add-in in Origin version 7 (MicroCal LLC). All titrations indicated a 1:1 interaction with observed stoichiometries equal to 1.0 (within 5%).
(§3) ITC experiments were performed using a MicroCal VP-ITC (MicroCal, LLC, Northampton, Mass.). All experiments were performed at 25° C. Proteins were dialyzed against the desired experimental buffer, which included PBS (20 mM NaPhosphate, 150 mM NaCl pH 7.4), TBS (20 mM Tris-HCl, 150 mM NaCl pH 7.4) and TBS-E (20 mM Tris, 150 mM NaCl, 1 mM EDTA, pH 7.4). For direct titration of NiCl₂ into the VHHmetal variant, concentrations were 2 mM and 200 μM for NiCl₂ and VHH, respectively. Based on the observed binding constant, this corresponds to a “cvalue” of 6.7, which is within the commonly acceptable range for the accurate determination of binding thermodynamics (Tellinghuisen, 2008; Wiseman et al. 1989). For competitive titrations, nickel was included in TBS without EDTA at concentrations ranging from 0-10 mM. Competitive VHH/RNase A titration experiments with a “c” value greater than 10 included protein concentrations ranging from 30 μM to 205 μM. Conditions included a 10-fold higher concentration of titrant (VHH). […] These experiments included using a 100-fold higher concentration of titrant (RNase A) relative to VHH. RNase A concentrations were between 150 μM and 800 μM. Extinction coefficients were determined using values determined by the methods described by Pace, et. al. (1995). […] For nickel/VHH titrations, the titrant nickel was dissolved in the appropriate dialysis buffer at a 10× concentration of the VHH. Experiments typically included 27, 10 μL injections with a 240 second delay between each injection. Dilution titrations indicated the absence of significant heats of dilution, consequently, no background dilution heat subtractions were necessary. The binding parameters (K, ΔH°, ΔS°, and n) were determined using the single site binding model using the ITC add-in in Origin version 7 (MicroCal LLC).

[4] = target: T1, bovine pancreatic RNase A; test: ITC, 25 C; no nickel
Experimental: as §2, §3

[5] = target: T1, bovine pancreatic RNase A; test: ITC, 25 C, no metal
Experimental: ITC experiments were performed using a MicroCal VP-ITC (MicroCal, LLC, Northampton, Mass.). All experiments were performed at 25° C. Proteins were dialyzed against the desired experimental buffer, which included PBS (20 mM NaPhosphate, 150 mM NaCl pH 7.4), TBS (20 mM Tris-HCl, 150 mM NaCl pH 7.4) and TBS-E (20 mM Tris, 150 mM NaCl, 1 mM EDTA, pH 7.4). For direct titration of NiCl₂ into the VHH-metal variant, concentrations were 2 mM and 200 μM for NiCl2 and VHH, respectively. Based on the observed binding constant, this corresponds to a “c-value” of 6.7, which is within the commonly acceptable range for the accurate determination of binding thermodynamics. For competitive titrations, nickel was included in TBS without EDTA at concentrations ranging from 0-10 mM. Competitive VHH/RNase A titration experiments with a “c” value greater than 10 included protein concentrations ranging from 30 μM to 205 μM. Conditions included a 10-fold higher concentration of titrant (VHH). […] These experiments included using a 100-fold higher concentration of titrant (RNase A) relative to VHH. RNase A concentrations were between 150 μM and 800 μM. […] The binding parameters (K, ΔH°, ΔS°, and n) were determined using the single site binding model using the ITC add-in in Origin version 7 (MicroCal LLC). […]

[6] = target: T1, bovine pancreatic RNase A; test: ITC, 25 C; RNase A binding with 10 mM nickel (competitive)
Experimental: as §2, §3

[7] = target: T1, bovine pancreatic RNase A; test: ITC, 25 C; RNase A binding with 1 µM nickel (competitive)
Experimental: as §2, §3

[8] = target: T1, bovine pancreatic RNase A; test: ITC, 25 C, pH 7.4; no nickel
Experimental: as §2, §3

[9] = target: T1, bovine pancreatic RNase A; test: ITC, 25 C, pH 7.4; no nickel; ITC at 25° C., no nickel
Experimental: as §2
(§4) ITC experiments were performed using a MicroCal VP-ITC (MicroCal, LLC, Northampton, Mass.). All experiments were performed at 25° C. Proteins were dialyzed against the desired experimental buffer, which included PBS (20 mM NaPhosphate, 150 mM NaCl pH 7.4), TBS (20 mM Tris-HCl, 150 mM NaCl pH 7.4) and TBS-E (20 mM Tris, 150 mM NaCl, 1 mM EDTA, pH 7.4). For direct titration of NiCl₂ into the VHHmetal variant, concentrations were 2 mM and 200 μM for NiCl₂ and VHH, respectively. Based on the observed binding constant, this corresponds to a “cvalue” of 6.7, which is within the commonly acceptable range for the accurate determination of binding thermodynamics (Tellinghuisen, 2008; Wiseman et al. 1989). For competitive titrations, nickel was included in TBS without EDTA at concentrations ranging from 0-10 mM. […] Extinction coefficients were determined using values determined by the methods described by Pace, et. al. (1995). […] The binding parameters (K, ΔH°, ΔS°, and n) were determined using the single site binding model using the ITC add-in in Origin version 7 (MicroCal LLC).

[10] = target: T1, bovine pancreatic RNase A; test: ITC, 25 C, no metal; reference is the wild-type anti-RNase A VHH
Experimental: as §2, §4

[11] = target: T1, bovine pancreatic RNase A; test: ITC, 25 C; RNase A binding with 100 µM nickel (competitive)
Experimental: as §2, §3

[12] = target: T1, bovine pancreatic RNase A; test: competitive phage ELISA, soluble RNase A against coated RNase A, with and without 1 mM Zn2+/Co2+/Ni2+
[13] = target: T1, bovine pancreatic RNase A; test: ITC, 25 C; RNase A binding with 10 µM nickel (competitive)
Experimental: as §2, §3

B1: wild-type anti-RNase A VHH (cAb-RN05) (VHH)
VHH: QVQLVESGGGLVQAGGSLRLSCAASGYAYTYIYMGWFRQAPGKEREGVAAMDSGGGGTLYADSVKGRFTISRDKGKNTVYLQMDSLKPEDTATYYCAAGGYELRDRTYGQWGQGTQVTVSS
notes: Camelid single-domain antibody; also called VHH-wt; wt-VHH
IC50 (read off the curve) [1]: ~1 nM
IC50 (read off the curve) [2]: ~0.7 nM
-TΔS° [3]: 0.9 kcal/mol
Kd [3]: 16 nM
N [3]: 0.994
ΔG° [3]: -10.6 kcal/mol
ΔH° [3]: -10.7 kcal/mol
-TΔS° [4]: 1.9 kcal/mol
Kd [4]: 19 nM
N [4]: 1.01
ΔG° [4]: -10.5 kcal/mol
ΔH° [4]: -12.4 kcal/mol

B2: VHH-metal (metal sensitive anti-RNase A VHH) (VHH)
VHH: B1 VHH with A28P, Y29H, T30P, I32L, Y33H, E102Q, Q110H
notes: also called Metal-VHH
Kd [5]: 155 nM
-TΔS° [6]: 1.3 kcal/mol
Kd [6]: 34000 nM
N [6]: 1
ΔG° [6]: -6.07 kcal/mol
ΔH° [6]: -7.3 kcal/mol
IC50 (read off the curve) [2]: ~0.6 nM
-TΔS° [3]: 0.09 kcal/mol
Kd [3]: 5640 nM
N [3]: 1
ΔG° [3]: -7.13 kcal/mol
ΔH° [3]: -7.2 kcal/mol
-TΔS° [7]: 8 kcal/mol
Kd [7]: 160 nM
N [7]: 0.959
ΔG° [7]: -9.27 kcal/mol
ΔH° [7]: -17.2 kcal/mol
-TΔS° [8]: 9 kcal/mol
N [8]: 0.96
ΔG° [8]: -9.3 kcal/mol
ΔH° [8]: -17.8 kcal/mol
Kd [9]: 157 nM
fold decrease in binding affinity against the wild-type VHH [10]: ~8 fold
ΔΔG° against the wild-type VHH [10]: 1.2 kcal/mol
-TΔS° [11]: -1 kcal/mol
Kd [11]: 900 nM
N [11]: 0.98
ΔG° [11]: -8.27 kcal/mol
ΔH° [11]: -7 kcal/mol
fold change in IC50 with and without 1 mM metals [12]: 1000 fold
-TΔS° [13]: 3.6 kcal/mol
Kd [13]: 219 nM
N [13]: 0.98
ΔG° [13]: -9.1 kcal/mol
ΔH° [13]: -12.7 kcal/mol
